Three molecules from US20160200763A1 (RAMOT AT TEL AVIV UNIVERSITY, published 2016) can be followed below.

The target of the test is Bacterially expressed Purified GSK-3β Wild-Type (WT) (human, UniProt P49841 1-420). Kind of test: cell-based or functional assay.

Square brackets hold non-standard residues; d marks the D form. Ends that are not written are not given here. * marks the point of attachment. Myristoyl = CCCCCCCCCCCCCC(=O)*; pS = N[C@@H](COP(=O)(O)O)C(=O)O

Bacterially expressed Purified GSK-3β Wild-Type (WT), sequence (P49841 other isoform, or with tags, fused parts or gaps limits assumed): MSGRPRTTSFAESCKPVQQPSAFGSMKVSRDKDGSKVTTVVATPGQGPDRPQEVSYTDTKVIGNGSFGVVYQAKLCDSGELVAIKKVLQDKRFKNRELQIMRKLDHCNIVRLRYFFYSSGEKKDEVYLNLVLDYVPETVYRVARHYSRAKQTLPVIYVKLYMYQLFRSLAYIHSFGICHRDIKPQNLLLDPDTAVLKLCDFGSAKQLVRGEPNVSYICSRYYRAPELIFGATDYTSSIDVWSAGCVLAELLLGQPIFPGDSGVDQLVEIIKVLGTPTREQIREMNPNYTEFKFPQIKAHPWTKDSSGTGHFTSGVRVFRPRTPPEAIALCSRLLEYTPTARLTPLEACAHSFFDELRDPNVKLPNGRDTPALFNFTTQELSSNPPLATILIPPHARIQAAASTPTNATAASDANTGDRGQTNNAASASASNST

For KEAPPAPPQ[pS]P [L803], the “IC50, inhibition of GSK-3β phosphorylation of pIRS-1 (in vitro kinase assay)” value was found to be 200 µM.
Turning to Myristoyl-GKEAPPAPPQ[pS]P [L803-mts], the “IC50, inhibition of GSK-3β phosphorylation of pIRS-1 (in vitro kinase assay)” value amounted to 40 µM.
The value for KEAPPSPPQ[pS]P [L807] was 16 µM.
